This note sets out measurements from patent US20140050720A1, “ULTRALONG COMPLEMENTARITY DETERMINING REGIONS AND USES THEREOF” (THE SCRIPPS RESEARCH INSTITUTE, priority 2012, published 2014).

The target in assay [1] is T1, CXCR1-U2OS (Homo sapiens, UniProt P25024).
T1 construct: host or cells: U2OS-derived CXCR1 cell line, purchased
T1 sequence (P25024 1-350): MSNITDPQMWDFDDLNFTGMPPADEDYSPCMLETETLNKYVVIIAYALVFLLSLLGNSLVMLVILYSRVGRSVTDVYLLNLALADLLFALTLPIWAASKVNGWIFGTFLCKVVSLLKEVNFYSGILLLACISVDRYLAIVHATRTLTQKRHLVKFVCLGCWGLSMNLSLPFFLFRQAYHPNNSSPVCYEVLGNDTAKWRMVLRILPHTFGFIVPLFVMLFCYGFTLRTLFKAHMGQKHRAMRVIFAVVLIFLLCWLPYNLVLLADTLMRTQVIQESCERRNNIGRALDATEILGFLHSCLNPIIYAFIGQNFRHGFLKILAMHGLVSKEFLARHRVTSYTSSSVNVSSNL
Nature of the assay: Flow cytometry binding to CXCR1 expressing cells. Conditions: CXCR1-U2OS cells, cell culture supernatant containing expressed IgG, anti-Human Fc detection. The procedure: Briefly, a cell line expressing functionally validated CXCR1 derived from U2OS cells was obtained from DiscoveRx and cultured per manufacturer's instructions (Cat#93-0226C3, DiscoveRx Corporation, Freemont, Calif.). The parental cell line U20S was obtained from ATCC and cultured under the same conditions as the CXCR1 cells. Cell culture supernatants from Example 2 above were then tested for binding to cells by flow cytometry. The adherent U20S or CXCR1-U20S cells were dissociated with Accutase (Innovative Cell Technologies, Inc., San Diego, Calif.), neutralized with an equal volume of media containing 10% serum, centrifuged at 1000 g, and resuspended in PBS with 2% BSA. Next, cells were dispensed into microtiter plates to achieve between 30,000 to 300,000 cells per well, centrifuged again, and resuspended in cell culture supernatant containing expressed IgG, or a dilution of IgG-containing cell culture supernatant. A fluorescent-conjugated anti-Human Fc antibody was used to detect binding of the expressedBLV1H12-IL8 fusion proteins to cells.
For orientation: Flow cytometry measures light scatter and fluorescence of single cells or particles in a stream.

Assay [2] concerns Human mPB CD34+ cells. Nature of the assay: Proliferative activity on human granulocyte progenitors (flow cytometry). In kind it is cell-based. Conditions: for Number of CD45RA− CD41−: 7 days. The procedure:
Human mPB CD34^+ cells were purchased from AllCells. Cells were resuspended in HSC expansion medium (StemSpan SFEM, StemCell Technologies) supplemented with 1× antibiotics and the following recombinant human cytokines thrombopoietin, IL6, Flt3 ligand, and stem cell factor (100 ng/mL, R & D Systems), then plated in 96-well plates (1000 cells per well), with varied concentrations of BLV1H12-bGCSF fusion antibodies. Cells were cultured for 7 days at 37° C. in a 5% CO2 incubator, then analyzed by flow cytometry to measure cell number and expression of CD45ra and CD41. Cells were stained in staining medium (HBSS supplemented with 2% FBS and 2 mM EDTA) at 4° C. for 1 h with PECy7 anti-CD45ra and eFluor 450 anti-CD41 (eBiosciences), then washed with staining medium and analyzed. Multicolor analysis for cell phenotyping was performed on a LSR II flow cytometer (Becton Dickinson). FIGS. 10A-10E and Tables 9-10 show the human granulocyte progenitor cell proliferative activities of the Ab-GCSF fusion antibodies.

Assay [3] relates to human peripheral blood mononuclear cells (PBMCs). Nature of the assay: Inhibition of human PBMC activation (secreted TNF-α ELISA). The class given is cell-based. Conditions: PBMCs activated by anti-CD3 and CD28 antibodies, 24 h. The procedure:
Human PBMCs were isolated from fresh venous blood of healthy donors through ficoll gradient centrifugation, followed by resuspension in RPMI1640 medium with 10% FBS and plating in 96-well plates at a density of 1×10^6 cells/mL. Human T cells were purified from the isolated PBMCs using T cell enrichment kit. Purified PBMCs and T cells were pretreated for 1 h at 37° C. with 5% CO2 with various concentrations of purified BLV1H12-Moka1 fusion antibodies and then activated by anti-CD3 and CD28 antibodies. After 24 h treatment, supernatant was collected for measurement of the levels of secreted TNF-α using ELISA kit.
On the technique in general: An ELISA detects its analyte on a solid surface through an enzyme-linked reagent.

B1: Ab: bovine BLV1H12 antibody with ultralong CDR3, no inserted polypeptide; heavy chain SEQ ID NO: 24, light chain SEQ ID NO: 23 (antibody)
heavy: QVQLRESGPSLVKPSQTLSLTCTASGFSLSDKAVGWVRQAPGKALEWLGSIDTGGNTGYNPGLKSRLSITKDNSKSQVSLSVSSVTTEDSATYYCTSVHQETKKYQSCPDGYRERSDCSNRPACGTSDCCRVSVFGNCLTTLPVSYSYTYNYEWHVDVWGQGLLVTVSS
light: QAVLNQPSSVSGSLGQRVSITCSGSSSNVGNGYVSWYQLIPGSAPRTLIYGDTSRASGVPDRFSGSRSGNTATLTISSLQAEDEADYFCASAEDSSSNAVFGSGTTLTVLGQPKSPPSVTLFPPSTEELNGNKATLVCLISDFYPGSVTVVWKADGSTITRNVETTRASKQSNSKYAASSYLSLTSSDWKSKGSYSCEVTHEGSTVTKTVKPSECS
As for B1, the “Median Arbitrary Fluorescence Units (AFU)” value in assay [1] was found to be 4 AFU. In addition, in assay [2], the “human granulocyte progenitor cell proliferative activity” value is on record as “lack of proliferative activity”. Also, the “Number of CD45RA− CD41−” value in assay [2] (0.28959 ng/mL) came to 3666; in assay [2] (0.86877 ng/mL), 3839; in assay [2] (2.60631 ng/mL), 3852; in assay [2] (23.45679 ng/mL), 3519; in assay [2] (70.37037 ng/mL), 3541; in assay [2] (211.11111 ng/mL) it was 3606. Further, the “Number of CD45RA− CD41−” value in assay [2] (5700 ng/mL) came out at 4100. Further, the “F.I. (secreted TNF-α, ELISA)” value in assay [3] (2 nM) is 2334; in assay [3] (20 nM), 2186; in assay [3] (200 nM), 1982; in assay [3] (400 nM), 1733.
